From patent US20240301385, “DNA MODIFYING ENZYMES AND ACTIVE FRAGMENTS AND VARIANTS THEREOF AND METHODS OF USE” (LIFEEDIT THERAPEUTICS, INC., published 2024)

What was measured:
APG30127-L32-nAPG07433.1 = biological target: T1, APG30127-L32-nAPG07433.1 (synthetic); assay: cell_activity; HEK293FT; PAM SEQ 152; conditions: tags: SV40 NLS, 3xFLAG N-term; nucleoplasmin NLS C-term
T1 chain: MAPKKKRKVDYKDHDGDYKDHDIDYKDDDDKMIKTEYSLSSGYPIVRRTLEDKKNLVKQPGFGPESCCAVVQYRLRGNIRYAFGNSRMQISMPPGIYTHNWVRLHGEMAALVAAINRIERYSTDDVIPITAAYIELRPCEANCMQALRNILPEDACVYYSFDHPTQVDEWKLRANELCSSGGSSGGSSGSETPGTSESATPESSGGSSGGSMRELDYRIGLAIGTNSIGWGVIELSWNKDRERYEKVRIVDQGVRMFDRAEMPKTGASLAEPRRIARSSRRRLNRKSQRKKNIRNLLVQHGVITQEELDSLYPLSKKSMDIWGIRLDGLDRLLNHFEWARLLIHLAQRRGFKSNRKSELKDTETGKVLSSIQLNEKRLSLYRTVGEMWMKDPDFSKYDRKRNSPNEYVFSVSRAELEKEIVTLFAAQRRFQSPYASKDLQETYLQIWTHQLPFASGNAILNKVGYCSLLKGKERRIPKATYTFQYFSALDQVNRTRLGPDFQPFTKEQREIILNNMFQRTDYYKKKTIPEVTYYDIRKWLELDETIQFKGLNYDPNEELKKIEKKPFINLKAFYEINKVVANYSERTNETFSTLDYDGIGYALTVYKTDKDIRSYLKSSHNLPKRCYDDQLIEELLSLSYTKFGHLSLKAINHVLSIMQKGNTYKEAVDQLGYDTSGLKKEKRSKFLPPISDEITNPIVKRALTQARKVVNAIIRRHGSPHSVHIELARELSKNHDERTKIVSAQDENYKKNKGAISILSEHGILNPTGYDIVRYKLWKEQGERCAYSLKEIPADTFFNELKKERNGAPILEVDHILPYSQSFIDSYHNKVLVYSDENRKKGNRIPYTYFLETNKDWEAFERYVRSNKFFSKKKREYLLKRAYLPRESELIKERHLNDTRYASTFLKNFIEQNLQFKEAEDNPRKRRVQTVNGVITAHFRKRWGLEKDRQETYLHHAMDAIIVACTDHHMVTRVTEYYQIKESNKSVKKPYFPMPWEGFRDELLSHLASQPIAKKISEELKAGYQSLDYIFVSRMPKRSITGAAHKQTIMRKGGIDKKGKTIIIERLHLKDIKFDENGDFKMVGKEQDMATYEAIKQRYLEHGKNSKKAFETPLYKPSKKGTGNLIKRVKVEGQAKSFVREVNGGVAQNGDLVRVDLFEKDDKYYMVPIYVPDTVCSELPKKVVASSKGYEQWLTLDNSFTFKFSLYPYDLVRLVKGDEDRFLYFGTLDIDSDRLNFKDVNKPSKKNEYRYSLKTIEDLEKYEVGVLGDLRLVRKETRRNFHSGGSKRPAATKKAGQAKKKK
Summary of the method: (§1)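 Editing read out by next-generation sequencing (MiSeq 2×250) of PCR amplicons spanning the target site, analysed for INDELs or % cytosine conversion per position (position 1 nearest PAM).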

APG30128-L32-nAPG07433.1 = biological target: T2, APG30128-L32-nAPG07433.1 (synthetic); assay: cell_activity; HEK293FT; PAM SEQ 152; conditions: tags: SV40 NLS, 3xFLAG N-term; nucleoplasmin NLS C-term
T2 chain: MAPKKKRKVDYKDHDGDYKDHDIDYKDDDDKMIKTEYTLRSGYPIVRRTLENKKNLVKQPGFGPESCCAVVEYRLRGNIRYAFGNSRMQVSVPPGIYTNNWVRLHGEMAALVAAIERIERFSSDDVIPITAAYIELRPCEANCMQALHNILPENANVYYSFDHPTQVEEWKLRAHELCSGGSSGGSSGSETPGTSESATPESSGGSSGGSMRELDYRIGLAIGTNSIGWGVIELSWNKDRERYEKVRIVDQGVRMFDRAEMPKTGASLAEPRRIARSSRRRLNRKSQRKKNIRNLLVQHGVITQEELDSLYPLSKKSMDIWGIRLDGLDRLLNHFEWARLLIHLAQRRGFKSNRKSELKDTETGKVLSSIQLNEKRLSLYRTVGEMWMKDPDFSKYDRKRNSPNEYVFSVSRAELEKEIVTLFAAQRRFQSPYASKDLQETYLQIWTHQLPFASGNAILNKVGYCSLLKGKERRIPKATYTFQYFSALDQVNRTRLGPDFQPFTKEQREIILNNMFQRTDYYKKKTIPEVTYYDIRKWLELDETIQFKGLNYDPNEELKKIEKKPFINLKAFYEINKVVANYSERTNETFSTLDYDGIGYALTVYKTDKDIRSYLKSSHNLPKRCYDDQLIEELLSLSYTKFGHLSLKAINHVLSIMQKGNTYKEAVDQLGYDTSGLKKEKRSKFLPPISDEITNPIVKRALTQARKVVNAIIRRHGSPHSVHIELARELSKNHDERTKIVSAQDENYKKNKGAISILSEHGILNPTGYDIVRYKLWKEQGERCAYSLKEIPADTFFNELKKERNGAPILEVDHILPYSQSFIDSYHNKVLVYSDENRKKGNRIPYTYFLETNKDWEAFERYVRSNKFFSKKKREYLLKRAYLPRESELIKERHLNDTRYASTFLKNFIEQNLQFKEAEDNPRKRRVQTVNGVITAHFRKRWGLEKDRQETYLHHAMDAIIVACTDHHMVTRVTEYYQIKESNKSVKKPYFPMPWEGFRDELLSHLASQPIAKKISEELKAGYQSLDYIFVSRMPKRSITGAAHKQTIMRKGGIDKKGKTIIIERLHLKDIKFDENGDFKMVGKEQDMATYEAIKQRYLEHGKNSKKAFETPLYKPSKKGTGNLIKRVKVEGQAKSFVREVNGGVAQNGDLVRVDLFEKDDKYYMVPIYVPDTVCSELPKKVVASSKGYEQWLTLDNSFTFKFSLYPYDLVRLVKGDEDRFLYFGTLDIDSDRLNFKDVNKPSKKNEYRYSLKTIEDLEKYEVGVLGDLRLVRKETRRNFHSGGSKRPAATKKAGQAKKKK
Summary of the method: as §1

Row | Binder | activity (APG30127-L32-nAPG07433.1) | activity (APG30128-L32-nAPG07433.1)
1 | SGN000194 sgRNA ; SGN000194 target (ssRNA ; dsDNA) RNA: GCCGCACAGCAUUCAGGUCGGUCAUAGUUCCAUUAAAGCCAAAAGUGGCUUUGAUGUUUCUAUGAUAAGGGUUUCGACCCGUGGCGUCGGGGAUCGCCUGCCCAUUGAAAUGGGCUUCUCCCCAUUUAUU DNA 1: GCCGCACAGCATTCAGGTCG DNA 2: CGACCTGAATGCTGTGCGGC | 9.53 % mutated reads | –
2 | SGN000930 sgRNA ; SGN000930 target (ssRNA ; dsDNA) RNA: GAACAACUCAAAUGGAAAUGAAUAUGUCAUAGUUCCAUGAAAGCCAAAAGUGGCUUUGAUGUUUCUAUGAUAAGGGUUUCGGCCCGUGGCGUCGGGGAUCGCCUGCCCAUUCCGAUGGGCUUCUCCCCAUUUAUU DNA 1: GAACAACTCAAATGGAAATGAATAT DNA 2: ATATTCATTTCCATTTGAGTTGTTC | – | 2.03 % mutated reads
